From article PMC4565553
Numbering of substitutions follows the chain as printed. One block for each molecule: values may come before it.

Columns and labels:
Assay in all cases: BLI; label-free in vitro kinetics assay; FLAG-tagged IPS1 CARD (2.5 μg/mL) immobilised on anti-FLAG probes; RLR CARDs at 0.001–100 μM in 1x Kinetics Buffer (ForteBio) with BSA, pH 7.0; 60 min association, 60 min dissociation; Kd = half-maximal steady-state binding, Km = half-maximal initial binding rate, one-site fit, 3 replicates; no ubiquitin
[1] = target: B. floridae IPS1 CARD (Branchiostoma floridae)
[2] = target: mutant human IPS1 CARD (Arg66,67—Glu), FLAG-tagged (human) (UniProt Q7Z434)
[3] = target: human IPS1 CARD (1–92), FLAG-tagged (human) (UniProt Q7Z434)

Molecule: B. floridae RIG-I CARD1+2 (domain or fragment)
fold lower Kd than the negative control (human CASP9 CARD) [1]: 5.4 fold
fold lower Km than the negative control (human CASP9 CARD) [1]: 6.1 fold

B3: human MDA5 CARD1 (1–96) (domain or fragment)
chain: MSNGYSTDENFRYLISCFRARVKMYIQVEPVLDYLTFLPAEVKEQIQRTVATSGNMQAVELLLSTLEKGVWHLGWTREFVEALRRTGSPLAARYMN
Kd [3]: 813 nM
Km (half-maximal initial binding rate) [3]: 0.55 µM

The next lines start with the values.

fold increase in Kd against wild-type IPS1 CARD [2]: 34.6 fold
fold increase in Km against wild-type IPS1 CARD [2]: 43.8 fold
Kd [3]: 33.1 nM
Km (half-maximal initial binding rate) [3]: 0.0389 µM
fold stronger binding than human caspase9 CARD (negative control) [3]: 70 fold
B1: human RIG-I CARD1 (1–87) (domain or fragment)
chain: MTTEQRRSLQAFQDYIRKTLDPTYILSYMAPWFREEEVQYIQAEKNNKGPMEAATLFLKFLLELQEEGWFRGFLDALDHAGYSGLYE

fold increase in Kd against wild-type RIG-I CARD1 [3]: 10 fold
fold increase in Km against wild-type RIG-I CARD1 [3]: 6.9 fold
B2: mutant human RIG-I CARD1 (Glu66,67—Arg) (domain or fragment)
chain: B1 chain with E66R, E67R
